Source: PMC12182893, “Dimeric DNA Aptamers for the Spike Protein of SARS‐CoV‐2 Derived from a Structured Library with Dual Random Domains”
Read-outs that look alike come from different tables or passages of the source.

Key:
alpha-thrombin [1] = molecular target: alpha-thrombin (human, UniProt P00734;P00734 328-363;364-622); experiment: dot blot (filter binding)
[2] = molecular target: Influenza hemagglutinin (HA) (influenza A/California/04/2009 (CAL 09), UniProt C3W5S1 18-530); experiment: dot blot (filter binding); conditions: protein: recombinant; chain copies: 3; label: radiolabel (32P)
SARS-CoV-1 spike protein = SARS-CoV-1 spike protein (SARS-CoV-1, UniProt P59594 14-1195); experiment: dot blot (filter binding); conditions: protein: recombinant; chain copies: 3; label: radiolabel (32P)
HKU1 RBD = HKU1 RBD (seasonal coronavirus HKU1, UniProt Q5MQD0 325-607); experiment: dot blot (filter binding); 10 nM protein; conditions: protein: recombinant; label: radiolabel (32P); 3-way junction, predicted
OC43 RBD = OC43 RBD (seasonal coronavirus OC43, UniProt P36334 333-607); experiment: dot blot (filter binding); 10 nM protein; conditions: protein: recombinant; label: radiolabel (32P); 3-way junction, predicted
229E RBD = 229E RBD (seasonal coronavirus 229E, UniProt P15423 293-435); experiment: dot blot (filter binding); 10 nM protein; conditions: protein: recombinant; label: radiolabel (32P); 3-way junction, predicted
NL63 RBD = NL63 RBD (seasonal coronavirus NL63, UniProt Q6Q1S2 481-616); experiment: dot blot (filter binding); 10 nM protein; conditions: protein: recombinant; label: radiolabel (32P); 3-way junction, predicted
alpha-thrombin [3] = molecular target: alpha-thrombin (human, UniProt P00734;P00734 328-363;364-622); conditions: protein: commercial; copies: 1;1; label: radiolabel (32P); 3-way junction, predicted

Measured: binding result

B1: DRDA10 (structured_DNA)
DNA: TTACGTCAAGGTGTCACTCCTGTGGGTGGAATGGGGAAGGGAGTGTTTTTTTTTTCGGAGATGTGTGTGTGAAACAGTGGGAAGCATCTCTTTGGCGTG
no binding: alpha-thrombin [1]

B2: DRDA8 (structured_DNA)
DNA: TTACGTCAAGGTGTCACTCCTGTGGGTGGAATGGGGAAGGGAGTGTTTTTTTTTGTGAGATGTGTGGTGTGGAATGGGGAAGCATCTCTTTGGCGTG
not listed: alpha-thrombin [1]
no binding: all other assays above
